Measurements reported in paper PMC4554727, “Flexible Structure of Peptide-Bound Filamin A Mechanosensor Domain Pair 20–21” (PLoS ONE, 2015).

Key:
[1] = biological target: T1, IgFLNaΔA20–21 (filamin A domains 20–21 lacking the first β strand of domain 20, residues 2151–2329) (UniProt P21333 2151-2329); experiment: SAXS; 277 K; 20 mM Tris pH 8.0, 100 mM NaCl, 10 mM DTT; 1–4 mg/ml IgFLNa20–21 or IgFLNa∆A20–21; two times molar excess of migfilin peptide where added; conditions: both partners purified
T1 construct: filamin A (FLNa), Ig-like domains 20–21 without the A strand of domain 20 (2141–2150), residues 2151–2329; residues 2151–2235 form domain ΔA20 and 2236–2329 domain 21; 15N (and 13C) isotope-labelled for the NMR experiments; same construct; also called IgFLNa∆A20–21; IgFLNΔAa20–21; source: E. coli BL21, purified (Glutathione Sepharose, TEV cleavage, size-exclusion chromatography)
T1 sequence (looked up): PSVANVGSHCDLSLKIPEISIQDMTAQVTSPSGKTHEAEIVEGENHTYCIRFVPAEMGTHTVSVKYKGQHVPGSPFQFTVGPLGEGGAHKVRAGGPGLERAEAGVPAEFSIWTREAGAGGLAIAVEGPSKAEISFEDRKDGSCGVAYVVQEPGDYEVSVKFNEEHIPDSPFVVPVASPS

[2] = biological target: T2, IgFLNa20–21 (filamin A immunoglobulin-like domains 20–21, residues 2141–2329) (UniProt P21333 2141-2329); experiment: as above; conditions: both partners purified
T2 construct: Cloned into a modified pGEX vector; also called FLNa mechanosensor domain pair 20–21; source: E. coli BL21, purified (Glutathione Sepharose, TEV cleavage, size-exclusion chromatography)
T2 sequence (looked up): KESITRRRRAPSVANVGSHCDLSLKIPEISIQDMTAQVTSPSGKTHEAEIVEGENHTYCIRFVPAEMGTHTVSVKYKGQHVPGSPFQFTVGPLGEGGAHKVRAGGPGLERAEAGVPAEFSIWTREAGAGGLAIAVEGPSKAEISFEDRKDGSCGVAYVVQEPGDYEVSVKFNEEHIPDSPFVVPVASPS

[3] = biological target: T3, IgFLNaΔA20–21 (filamin A domains 20–21 lacking the first β strand of domain 20, residues 2151–2329) (Homo sapiens (Human), UniProt P21333); experiment: NMR HSQC titration, crystal structure
T3 chain: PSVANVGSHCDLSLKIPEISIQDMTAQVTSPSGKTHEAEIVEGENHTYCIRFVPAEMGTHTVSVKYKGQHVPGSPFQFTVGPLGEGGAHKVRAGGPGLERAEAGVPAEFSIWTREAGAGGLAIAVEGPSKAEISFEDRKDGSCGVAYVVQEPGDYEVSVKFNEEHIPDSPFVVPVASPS

[4] = biological target: T4, IgFLNa20–21 (filamin A immunoglobulin-like domains 20–21, residues 2141–2329) (Homo sapiens (Human), UniProt P21333); experiment: SAXS
T4 chain: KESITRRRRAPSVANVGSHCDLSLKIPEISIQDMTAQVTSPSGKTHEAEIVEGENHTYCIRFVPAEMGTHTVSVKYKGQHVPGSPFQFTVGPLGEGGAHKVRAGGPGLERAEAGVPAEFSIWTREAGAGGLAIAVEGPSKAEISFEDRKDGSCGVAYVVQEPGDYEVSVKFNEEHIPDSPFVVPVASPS

Measured: binding result

B1: migfilin peptide (residues 5–28) (peptide)
peptide: PEKRVASSVFITLAPPRRDVAVAE
notes: migfilin, residues 5–28; it is removed here; Only residues 6–20 are seen in the crystal structure; also called migfilin^5–28 peptide; migfilin-derived peptide; source: bought: EZBiolab (Westfield, IN)
binds: all assays above
